The target of test [1] is T1, recombinant SARS-CoV-2 RBD with C-terminal AviTag (SARS-CoV-2, UniProt P0DTC2 319-541). The experiment in a line: ELISA, competition with coated ACE2-Fc for RBD [Cont. 3]. For orientation: In an ELISA, binding on a coated surface is turned into a signal by an enzyme label.
Test [2] addresses SARS-COV-2 Wuhan Reference RBD (SARS-CoV-2, UniProt P0DTC2 319-541). As to the kind of experiment: ELISA, RBD coated.
For test [3], the target named is T1, recombinant SARS-CoV-2 RBD with ….
For test [4] the target is unchanged. This is another data set of the same source.
Test [5] shares this target. As to the kind of experiment: BLI, biotinylated RBD on streptavidin biosensors [Cont. 8]. For orientation: In BLI a coated tip is dipped into the sample, and binding shifts an interference pattern.
Test [6] shares this target. The experiment in a line: ELISA, competition with coated ACE2-Fc for RBD [Cont. 8].
For test [7] the target is unchanged. As to the kind of experiment: ELISA, competition with coated ACE2-Fc for RBD [Cont. 2].
For test [8] the target is unchanged. The source holds these as a separate data set.
For test [9] the target is unchanged. This is another data set of the same source.
For test [10] the target is unchanged. As to the kind of experiment: ELISA, competition with coated ACE2-Fc for RBD [Cont. 4].
Test [11] shares this target. As to the kind of experiment: ELISA, competition with coated ACE2-Fc for RBD [Cont. 5].
The target is the same in test [12]. This is another data set of the same source.
Test [13] shares this target. As to the kind of experiment: BLI, biotinylated RBD on streptavidin biosensors.
Test [14] shares this target. The experiment in a line: ELISA, competition with coated ACE2-Fc for RBD.
The target is the same in test [15]. This is another data set of the same source.
Test [16] shares this target. This is another data set of the same source.
Test [17] has the same target. This is another data set of the same source.

Like-named read-outs stand apart in the source and are kept apart here.

Experimental findings from patent US20240150440A1 (LUMEN BIOSCIENCE, published 2024) are described below.

B1: MBP-5HVZ-R5B-G1-H6 (VHH)
VHH: QVQLVESGGGLVQPGGSLRLSCAASGSIGQIVLVHWFRQAPGKQRELVAGITSPSSTYYADSVKGRFTISRDNAKNTVYLQMNSLKPEDTAVYYCNTELEGKTQGFTGKTVWYDYWGQGTQVTVSS
In general, IC50 refers to the point on the concentration scale where inhibition reaches its midpoint. On to B1, for which the IC50 in test [1] worked out at 26.6 nM.

B2: PP1150 MBP-5HVZ-PAPA-R5b-G1-H6 (VHH)
VHH: B1 VHH
notes: Form: Dimer
As usually defined, the EC50 is the midpoint of the concentration-response curve. In turn, B2 yielded an EC50 in [2] of 0.64 nM. Besides, the IC50 in [1] was determined as 5.2 nM.

B3: PP1896 Cerberbody (2-R2B-D5 and 1-S3b-C8) (other, not shown: large carriers)
chain 1: QVQLVESGGGLVQPGGSLRLSCAASGYADEINMVHWYRQAPGKGREFVAAIASGGSTFYADSVKGRFTISRDNAKNTVYLQMNSLKPEDTAVYYCAAIPRPSLSYAHDYAYWGQGTQVTVSSHHHHHH
chain 2: QVQLVESGGGLVQPGGSLRLSCAASGSIENIERMHWYRQAPGKQRELVAVIDSGGTTRYADSVKGRFTISRDNAKNTVYLQMNSLKPEDTAVYYCAAVWLTNAESTQEYWGQGTQVTVSSTVILEYAHRLSQDILSDALQQWASHHHHHHHH
A word on the Kd: it is the free concentration of one partner at which half of the binding sites on the other are occupied at equilibrium, for simple one-to-one binding. As usually defined, the koff is a measure of how fast the partners let go of each other. The term kon denotes a measure of how fast the partners come together. As for B3, in test [3], the dissociation constant Kd is < 0.001 nM, the koff was < 1e-07 s⁻¹ and the kon was determined as 248000 M⁻¹ s⁻¹.

B4: PP1897 Cerberbody (3-S3b-C8) (other, not shown: large carriers)
chain 1: QVQLVESGGGLVQPGGSLRLSCAASGSIENIERMHWYRQAPGKQRELVAVIDSGGTTRYADSVKGRFTISRDNAKNTVYLQMNSLKPEDTAVYYCAAVWLTNAESTQEYWGQGTQVTVSSHHHHHH
chain 2: B3 chain 2
B4: in test [4], the dissociation constant Kd came out at 0.73 nM, the koff was found to be 0.000382 s⁻¹ and the kon was 521000 M⁻¹ s⁻¹.

B5: PP931 MBP-5HVZ-R5a-F5-H6 (VHH)
VHH: QVQLVESGGGLVQPGGSLRLSCAASGYHASILAMHWVRQAPGKEREWVASMTWSDMTQYSDSVKGRFTISRDNAKNTVYLQMNSLKPEDTAVYYCAATYVTRDRPWTHWGQGTQVTVSS
notes: Form: Dimer
For the molecule B5, the EC50 in [2] came to 1.93 nM. Besides, in test [5], the Kd was 11.9 nM. Further, the IC50 in test [6] was determined as 5.6 nM.

B6: PP1148 MBP-5HVZ-PAPA-R5a-C5-H6 (VHH)
VHH: QVQLVESGGGLVQPGGSLRLSCAASGDIFSINALHWFRQAPGKQREEVAAITSGGSTGYADSVKGRFTISRDNAKNTVYLQMNSLKPEDTAVYYCAAQQARGGLDSDYWGQGTQVTVSS
notes: Form: Dimer
Consider B6, for which the concentration for a half-maximal effect (EC50) in test [2] came out at 0.3 nM. Besides, the IC50 in [7] came out at 1.1 nM.

B7: PP1136 MBP-4B0F-PAPA-R5a-C5-H6 (VHH)
VHH: B6 VHH
notes: Form: Heptamer
As for B7, the IC50 in [7] came out at 1.8 nM.

B8: PP1160 MPB-scTRP-PAPA-R5a-C5-H6 (VHH)
VHH: B6 VHH
notes: Form: Trimer
On to B8, for which the IC50 in [7] came out at 2.9 nM.

B9: PP934 MBP-5HVZ-S3a-H2-H6 (VHH)
VHH: QVQLVESGGGLVQPGGSLRLSCAASGAAFSKNALHWFRQAPGKGREWVASITSGSGTQYMDSVKGRFTISRDNAKNTVYLQMNSLKPEDTAVYYCAALAYSGGYDYWGQGTQVTVSS
notes: Form: Dimer
With B9, the EC50 in test [2] was found to be 1.07 nM. Besides, the Kd in test [5] was 18.4 nM. In addition, the IC50 in [6] was found to be 2.2 nM.

B10: MBP-5HVZ-R5C-B1-H6 (VHH, not shown: large carriers; small tags and cut ends)
VHH: QVQLVESGGGLVQPGGSLRLSCAASGSGFSNNAMHWYRQAPGKQREGVAGITSGSVSFYADSVKGRFTISRDNAKNTVYLQMNSLKPEDTAVYYCAAVTGSSTGNAGQGYLTWGQGTQVTVSS
B10: the Kd in [8] came out at 10 nM. Further, in test [9], the IC50 turned out to be 0.3 nM and the Kd is 9.98 nM.

B11: PP1152 MBP-5HVZ-PAPA-R5d-B6-H6 (VHH)
VHH: QVQLVESGGGLVQPGGSLRLSCAASGRILAANIVHWYRQAPGKEREGVAGITSGGGSYYADSVKGRFTISRDNAKNTVYLQMNSLKPEDTAVYYCNALGLGQSSLYRSADPYDSWGQGTQVTVSS
notes: Form: Dimer
Regarding B11, the IC50 in [10] is 4.7 nM.

B12: PP1140 MBP-4B0F-PAPA-R5d-B6-H6 (VHH)
VHH: B11 VHH
notes: Form: Heptamer
As to B12, in test [11], the IC50 came to 106 nM.

B13: MBP-5HVZ-R5A-E5-H6 (VHH, not shown: large carriers; small tags and cut ends)
VHH: QVQLVESGGGLVQPGGSLRLSCAASGYDFDILRMAWFRQAPGKEREMVAAITSAESVNYEDSVKGRFTISRDNAKNTVYLQMNSLKPEDTAVYYCATYDYTDDYGYASWGQGTQVTVSS
As for B13, in test [8], the Kd was ~31 nM. For the same molecule, in test [12], the concentration for half-maximal inhibition (IC50) worked out at 17.7 nM and the Kd turned out to be 31 nM.

B14: PP1149 MBP-5HVZ-PAPA-R5a-E5-H6 (VHH)
VHH: B13 VHH
notes: Form: Dimer
Regarding B14, a half-maximal response in [2] (EC50) required 2.5 nM. In addition, the IC50 in test [7] amounted to 14.2 nM.

B15: dimeric VHH (VHH-5HVZ-MBP) R2B-E6 (VHH)
VHH: QVQLVESGGGLVQPGGSLRLSCAASGGVTRGNAMAWYRQAPGKQREIVAAIDNGGSHAYGDSVKGRFTISRDNAKNTVYLQMNSLKPEDTAVYYCAVFPDHDSEQASIDRVYWGQGTQVTVSS
B15: in test [13], the Kd is 10.3 nM. Besides, in test [14], the IC50 was determined as 17.9 nM.

B16: MBP-R2B-D5-H6 (VHH)
VHH: QVQLVESGGGLVQPGGSLRLSCAASGYADEINMVHWYRQAPGKGREFVAAIASGGSTFYADSVKGRFTISRDNAKNTVYLQMNSLKPEDTAVYYCAAIPRPSLSYAHDYAYWGQGTQVTVSS
notes: monomer
In the case of B16, the Kd in test [13] amounted to 82 nM.

B17: PP1898 Cerberbody (1-R2B-D5 and 2-S3b-C8) (other, not shown: large carriers; small tags and cut ends)
VHH 1: QVQLVESGGGLVQPGGSLRLSCAASGSIENIERMHWYRQAPGKQRELVAVIDSGGTTRYADSVKGRFTISRDNAKNTVYLQMNSLKPEDTAVYYCAAVWLTNAESTQEYWGQGTQVTVSS
VHH 2: B16 VHH
Regarding B17, in test [15], the Kd was determined as 0.4 nM, the koff was found to be 0.000218 s⁻¹ and the kon turned out to be 540000 M⁻¹ s⁻¹.

B18: R2B-D5 monomer (PP805) (VHH, not shown: large carriers; small tags and cut ends)
VHH: B16 VHH
With B18, in test [16], the Kd was 10 nM, the koff came out at 0.00226 s⁻¹ and the kon amounted to 226000 M⁻¹ s⁻¹.

B19: PP1141 MBP-4B0F-PAPA-R5d-D4-H6 (VHH)
VHH: QVQLVESGGGLVQPGGSLRLSCAASGSDFTINAMHWFRQAPGKQREFVATITSTSSTAYRDSVKGRFTISRDNAKNTVYLQMNSLKPEDTAVYYCAAFAVRDADTAGWTARDYWGQGTQVTVSS
notes: Form: Heptamer
As for B19, the IC50 in test [11] is 74.6 nM.

B20: PP927 MBP-5HVZ-R1i-C8-H6 (VHH)
VHH: QVQLVESGGGLVQPGGSLRLSCAASGRQFGAWRMHWYRQAPGKQREWVAGITSGTSGNYADSVKGRFTISRDNAKNTVYLQMNSLKPEDTAVYYCAATSHTTYHAEYWGQGTQVTVSS
notes: Form: Dimer
For B20, in test [2], a half-maximal effect (EC50) was put at 1.43 nM. For the same molecule, in test [5], the Kd came to 25.2 nM. The IC50 in test [6] is 111 nM.

B21: PP1151 MBP-5HVZ-PAPA-R5d-B5-H6 (VHH)
VHH: QVQLVESGGGLVQPGGSLRLSCAASGSRDSIVAMHWYRQAPGKGREGVAGITSRWVTYYADSVKGRFTISRDNAKNTVYLQMNSLKPEDTAVYYCNAPVYYDTEWYDIWGQGTQVTVSS
notes: Form: Dimer
On to B21, for which, in [10], the IC50 worked out at 23.1 nM.

B22: MBP-5HVZ-R2A-C5-H6 (VHH, not shown: large carriers; small tags and cut ends)
VHH: QVQLVESGGGLVQPGGSLRLSCAASGTWGNIQYLSWFRQAPGKRREFVAAITPNNGTNYADSVKGRFTISRDNAKNTVYLQMNSLKPEDTAVYYCTAVLWYTTKEGPYDYWGQGTQVTVSS
On to B22, for which the half-maximal inhibitory concentration (IC50) in test [17] was found to be 13.3 nM.
